Laboratory results as given in publication PMC12904073, “Two Novel S‐methyltransferases Confer Dimethylsulfide Production in Actinomycetota” (Advanced Science, 2025).

Legend:
MddM1 = system: T1, MddM1; assay: GC detection of DMS, Michaelis-Menten fit; assay type: biochemical, Mycolicibacterium poriferae; settings: pH 9, 40 °C
T1 construct: full length (210 aa, ~23 kDa native), GST-tagged in pGEX-4T-1, expressed in E. coli BL21(DE3), glutathione Sepharose purified; no tag removal told

[1] = substrate: CS; assay: GC detection of DMS, Michaelis-Menten fit; assay type: biochemical, Thermobispora bispora; settings: pH 8, 30 °C, SAM fixed at 1 mM, GST-tagged enzyme 2 µg
purified protein = substrate: C[S+](CC[C@H](N)C(=O)O)C[C@H]1O[C@@H](n2cnc3c(N)ncnc32)[C@H](O)[C@@H]1O; assay: purified protein; settings: pH 8, 30 °C, MeSH as co-substrate fixed at 1 mM, methyl donor

C[S+](CC[C@H](N)C(=O)O)C[C@H]1O[C@@H](n2cnc3c(N)ncnc32)[C@H](O)[C@@H]1O (some centres unmarked) [S-adenosine-methionine]
Km (MddM1; MeSH as co-substrate fixed at 1 mM, methyl donor): 110 ± 50 µM

CS [methanethiol]
Km (MddM1; SAM fixed at 1 mM, GST-tagged enzyme 1 µg): 760 µM

B1: TbMddM2 (Thermobispora bispora DSM 43833) (protein)
chain: MSAADVLPVNHHADHPGFSGVIGTVIGLIFLLAGRPTARLAADLAAVGPGDRVADIGCGPGTAVREAARRGAQATGVDPAPVMLRWARMAGRGEAMEWREGTAERVPLPDGWATVWWSLATVHHWKDVEAGLREAYRVLAPGGRLLAMERQIAPGATGQASHGWTRRQADAFADHCRAAGFTDVTVTAHRAGRRDVWVVTATRP
Km [1]: 220 µM | Km (purified protein): 20 ± 10 µM | kcat (purified protein): 0.05 ± 0.01 s⁻¹
